Laboratory results: paper PMC10844593

Columns and labels:
[1] = biological target: Flag-tagged human AMPK-α1 fusion protein (human) (UniProt Q13131)
[2] = biological target: Flag-tagged human AMPK-α2 fusion protein (human) (UniProt P54646)
[3] = biological target: Flag-tagged human CHREBP fusion protein (human) (UniProt Q9NP71)
Chain of Flag-tagged human CHREBP fusion protein (human) (Q9NP71 whole entry, the tested form may be a part): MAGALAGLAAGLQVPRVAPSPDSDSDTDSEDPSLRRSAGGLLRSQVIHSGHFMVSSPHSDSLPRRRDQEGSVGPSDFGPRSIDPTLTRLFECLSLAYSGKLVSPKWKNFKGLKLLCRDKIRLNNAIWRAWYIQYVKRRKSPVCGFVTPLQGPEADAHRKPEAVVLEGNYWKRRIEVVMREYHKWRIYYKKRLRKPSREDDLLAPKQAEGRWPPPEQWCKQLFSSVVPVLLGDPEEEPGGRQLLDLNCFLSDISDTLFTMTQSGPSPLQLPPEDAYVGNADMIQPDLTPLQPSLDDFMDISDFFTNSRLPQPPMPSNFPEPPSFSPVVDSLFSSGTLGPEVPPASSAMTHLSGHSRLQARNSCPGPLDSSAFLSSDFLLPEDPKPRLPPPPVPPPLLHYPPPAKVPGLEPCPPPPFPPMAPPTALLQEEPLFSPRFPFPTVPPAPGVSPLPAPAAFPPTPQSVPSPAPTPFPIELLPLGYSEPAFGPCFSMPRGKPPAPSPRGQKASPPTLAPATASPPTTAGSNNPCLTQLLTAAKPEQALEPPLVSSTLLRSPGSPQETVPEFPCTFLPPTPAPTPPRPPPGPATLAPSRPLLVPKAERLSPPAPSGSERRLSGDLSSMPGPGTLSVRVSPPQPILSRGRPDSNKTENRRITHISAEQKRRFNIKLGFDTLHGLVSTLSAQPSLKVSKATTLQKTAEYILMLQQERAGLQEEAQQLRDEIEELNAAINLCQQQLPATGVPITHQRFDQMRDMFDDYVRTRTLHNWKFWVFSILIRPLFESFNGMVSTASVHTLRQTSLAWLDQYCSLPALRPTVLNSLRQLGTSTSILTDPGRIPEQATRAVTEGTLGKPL

Chain of active CDK6/Cyclin D3 kinase (Q00534 whole entry): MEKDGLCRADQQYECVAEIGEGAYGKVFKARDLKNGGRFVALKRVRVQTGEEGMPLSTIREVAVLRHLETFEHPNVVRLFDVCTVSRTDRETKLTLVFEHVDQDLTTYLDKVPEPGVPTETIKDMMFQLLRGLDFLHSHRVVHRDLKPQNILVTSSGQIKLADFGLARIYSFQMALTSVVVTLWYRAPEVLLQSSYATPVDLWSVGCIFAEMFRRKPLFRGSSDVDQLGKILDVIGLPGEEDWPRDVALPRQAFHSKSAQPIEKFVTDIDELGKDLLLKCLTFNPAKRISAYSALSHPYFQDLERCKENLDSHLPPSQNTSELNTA
Chain of active CDK6/Cyclin D3 kinase (P30281 whole entry): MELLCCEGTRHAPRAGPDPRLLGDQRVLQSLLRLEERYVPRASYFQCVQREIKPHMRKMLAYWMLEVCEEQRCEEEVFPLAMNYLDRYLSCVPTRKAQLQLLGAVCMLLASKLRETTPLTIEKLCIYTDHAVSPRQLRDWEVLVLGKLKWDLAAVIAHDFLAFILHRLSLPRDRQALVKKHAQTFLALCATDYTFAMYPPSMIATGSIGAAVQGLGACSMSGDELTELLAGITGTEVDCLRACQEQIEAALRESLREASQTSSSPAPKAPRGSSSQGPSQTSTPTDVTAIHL
Chain of Flag-tagged human AMPK-α2 fusion protein (human) (P54646 whole entry, the tested form may be a part): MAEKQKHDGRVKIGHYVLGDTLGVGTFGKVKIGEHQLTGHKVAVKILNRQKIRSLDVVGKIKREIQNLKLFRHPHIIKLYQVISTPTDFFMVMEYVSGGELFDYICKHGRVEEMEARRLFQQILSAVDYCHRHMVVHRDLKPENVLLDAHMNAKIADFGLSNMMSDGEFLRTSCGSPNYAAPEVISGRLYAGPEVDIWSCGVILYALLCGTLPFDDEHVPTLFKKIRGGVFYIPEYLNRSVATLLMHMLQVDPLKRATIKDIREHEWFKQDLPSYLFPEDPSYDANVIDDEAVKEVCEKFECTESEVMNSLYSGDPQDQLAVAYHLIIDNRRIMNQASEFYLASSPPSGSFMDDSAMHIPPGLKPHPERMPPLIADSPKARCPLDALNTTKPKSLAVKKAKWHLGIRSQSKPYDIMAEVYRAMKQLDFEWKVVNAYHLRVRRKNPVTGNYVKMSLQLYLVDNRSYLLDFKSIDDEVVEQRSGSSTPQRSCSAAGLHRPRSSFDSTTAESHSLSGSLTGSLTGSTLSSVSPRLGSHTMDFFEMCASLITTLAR
Chain of Flag-tagged human AMPK-α1 fusion protein (human) (Q13131 whole entry, the tested form may be a part): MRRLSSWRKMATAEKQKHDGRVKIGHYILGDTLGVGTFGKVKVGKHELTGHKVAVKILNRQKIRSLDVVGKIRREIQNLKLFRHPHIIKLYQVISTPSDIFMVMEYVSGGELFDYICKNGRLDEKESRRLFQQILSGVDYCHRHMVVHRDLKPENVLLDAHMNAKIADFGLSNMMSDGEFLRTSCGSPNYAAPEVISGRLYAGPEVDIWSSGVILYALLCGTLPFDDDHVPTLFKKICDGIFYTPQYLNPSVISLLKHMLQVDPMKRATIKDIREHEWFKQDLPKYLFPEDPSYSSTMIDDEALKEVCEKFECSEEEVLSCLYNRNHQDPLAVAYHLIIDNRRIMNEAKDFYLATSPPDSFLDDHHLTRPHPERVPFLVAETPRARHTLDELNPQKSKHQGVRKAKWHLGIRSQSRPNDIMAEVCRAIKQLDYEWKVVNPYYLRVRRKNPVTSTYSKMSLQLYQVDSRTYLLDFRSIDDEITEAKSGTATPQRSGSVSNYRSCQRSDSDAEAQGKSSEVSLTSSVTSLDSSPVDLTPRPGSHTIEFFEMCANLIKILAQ

## active CDK6/Cyclin D3 kinase (from UniProt Q00534 1-326; P30281 1-292) (complex)
[1]
  fold increase in total spectrum counts (TSC) of phosphorylated peptides of the substrate after in vitro kinase reaction with CDK6/D3 (mass spectrometry): 14.7 fold
[2]
  fold increase in total spectrum counts (TSC) of phosphorylated peptides of the substrate after in vitro kinase reaction with CDK6/D3 (mass spectrometry): 46.8 fold
[3]
  fold increase in total spectrum counts (TSC) of phosphorylated peptides of the substrate after in vitro kinase reaction with CDK6/D3 (mass spectrometry): 6.43 fold
